Article PMC7528653 (Nucleic Acids Research, 2020)

What was measured:
[1] = target: T1, MSL1 (untagged, subunit of the DCCcore) (Drosophila melanogaster, UniProt P50535 1-1039); assay: co-IP
T1 sequence: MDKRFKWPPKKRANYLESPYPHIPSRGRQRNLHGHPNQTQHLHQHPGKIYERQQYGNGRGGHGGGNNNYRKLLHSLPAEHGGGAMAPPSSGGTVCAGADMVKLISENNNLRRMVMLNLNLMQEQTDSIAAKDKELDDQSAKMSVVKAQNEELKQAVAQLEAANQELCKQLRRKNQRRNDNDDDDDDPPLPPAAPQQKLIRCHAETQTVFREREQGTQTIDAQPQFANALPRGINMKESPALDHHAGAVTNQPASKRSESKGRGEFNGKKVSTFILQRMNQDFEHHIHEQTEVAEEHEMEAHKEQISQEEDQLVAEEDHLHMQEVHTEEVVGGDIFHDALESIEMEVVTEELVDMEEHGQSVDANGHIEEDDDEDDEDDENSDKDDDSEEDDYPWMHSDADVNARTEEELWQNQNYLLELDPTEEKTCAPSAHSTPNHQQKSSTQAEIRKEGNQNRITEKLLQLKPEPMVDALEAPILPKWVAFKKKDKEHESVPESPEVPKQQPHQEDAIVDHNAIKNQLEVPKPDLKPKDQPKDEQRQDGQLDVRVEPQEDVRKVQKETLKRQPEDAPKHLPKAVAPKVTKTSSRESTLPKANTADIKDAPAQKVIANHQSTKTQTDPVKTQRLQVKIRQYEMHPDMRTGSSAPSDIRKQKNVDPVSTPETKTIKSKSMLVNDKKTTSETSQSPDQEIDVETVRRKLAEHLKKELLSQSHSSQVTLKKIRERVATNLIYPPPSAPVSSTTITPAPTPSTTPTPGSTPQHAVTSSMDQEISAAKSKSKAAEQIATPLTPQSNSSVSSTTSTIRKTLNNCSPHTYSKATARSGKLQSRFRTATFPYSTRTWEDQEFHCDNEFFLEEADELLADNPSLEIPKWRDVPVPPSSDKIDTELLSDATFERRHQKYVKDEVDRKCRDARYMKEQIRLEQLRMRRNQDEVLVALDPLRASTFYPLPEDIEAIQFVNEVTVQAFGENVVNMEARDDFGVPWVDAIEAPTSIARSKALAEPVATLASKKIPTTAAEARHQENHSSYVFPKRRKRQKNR

[2] = target: MLE-FLAG (maleless DExH helicase, wild-type) (Drosophila melanogaster, UniProt P24785 1-1293); assay: co-IP

B1: MSL3 with an N-terminal hexahistidine tag (natural protein)
chain: MTELRDETPLFHKGEIVLCYEPDKSKARVLYTSKVLNVFERRNEHGLRFYEYKIHFQGWRPSYDRCVRATVLLKDTEENRQLQRELAEAAKLQIRGDYSYKGTPDKPSAKKKRGGKAAHVEEPIVVPMDTGHLEAEHEMAPTPRAAGNRTRDNSGGKRKEKPPSGDGRLKGNRGRQTETFYNNAINDVSVYNHVPQEDRIMMRVSERLRELIEYDRNMIKVLGKQHALPARVPIVTIMENFVKQQAVELAISIKQDSSRARNTQSRNARMEREYDRVMSTVCMLKEVVDGLRIYFEFHVDDHLLYTEEKEYVHNYLTDDNMRNCSLILNKSYEYINPSGDTELIGLDGTPVVEGSGDTNGQIGVINIGGPEYEKQLQKCLLYIVTASGKNTAQAYERTSPYTAAYKLPVEMRGFLNETFKWRLLSAESPPEKSMVFGAPHLVRLMIKMPMFLNASPISNKKLEDLLPHLDAFINYLENHREWFDRENFVNSTALPQEDLQRELLDSLDGIAA
Question: Does B1 bind [1]?
Answer: binds

B2: DCC DNA-binding module (MSL2-FLAG and MSL1 Δ865-1039) (complex)
chain 1: MAQTAYLKVTRIAMRSASNLSKRRVEELNSGLGELRQLLSCVVCCQLLVDPYSPKGKRCQHNVCRLCLRGKKHLFPSCTQCEGCSDFKTYEENRMMAAQLLCYKTLCVHLLHSALFGELAGMRPQVARELVPRIKLPPKTTQEFIREGSNISDTFDIFLPQPDLPFLKDMPTSLPAETPPTSAVTTPELPYDHHLNISDIEAEAAATAEQGHFSPLPLLPTGSRMGMLSHAGQIVIATESSESGFMDQAWTDQVDLSGTVSVSKYTNSGNNFAVSYVMPTSATTKFDPQELQIGQVVQMADSTQLAVLAAVEETVETSTQLTVLSTTVEETVETSTQLEVLTSAEEPNEISDQLANLQVEESDEALVEETVEEAEGTSIPSEVVAEHMEEDQHLDVHTSQSPTQTEMEEAVEEHVATKTQLGHVQTELQDAESLQKDFEDAKAAAEEAKEKEKDLHAISAELQKEDSDEPTLKRKRTRTLKASQAAKIEPVPSEVKTKVQSGKGALRRIRGKDKEEKVKPPKPKCRCGISGSSNTLTTCRNSRCPCYKSYNSCAGCHCVCCKNPHKEDYVESDEDDDLEDFEMPKDVPEPMTQSEEPVVAEPRQEENSMAPPDSSAPISLVPLNNLQQSQHPLVLVQNEKGEYQGFNIFQGSKPLDPVTVGFTIRVQLQHTDGFGSLPQYAYIMPTIDPPNPPAPSLSPPPPPAPDREVIEPPAKKFRTSRTRRGRANFSALDTVDELVSGGSRSNSAAGDRSSATDNAHSLFEEIMSGSDDL
chain 2: MDKRFKWPPKKRANYLESPYPHIPSRGRQRNLHGHPNQTQHLHQHPGKIYERQQYGNGRGGHGGGNNNYRKLLHSLPAEHGGGAMAPPSSGGTVCAGADMVKLISENNNLRRMVMLNLNLMQEQTDSIAAKDKELDDQSAKMSVVKAQNEELKQAVAQLEAANQELCKQLRRKNQRRNDNDDDDDDPPLPPAAPQQKLIRCHAETQTVFREREQGTQTIDAQPQFANALPRGINMKESPALDHHAGAVTNQPASKRSESKGRGEFNGKKVSTFILQRMNQDFEHHIHEQTEVAEEHEMEAHKEQISQEEDQLVAEEDHLHMQEVHTEEVVGGDIFHDALESIEMEVVTEELVDMEEHGQSVDANGHIEEDDDEDDEDDENSDKDDDSEEDDYPWMHSDADVNARTEEELWQNQNYLLELDPTEEKTCAPSAHSTPNHQQKSSTQAEIRKEGNQNRITEKLLQLKPEPMVDALEAPILPKWVAFKKKDKEHESVPESPEVPKQQPHQEDAIVDHNAIKNQLEVPKPDLKPKDQPKDEQRQDGQLDVRVEPQEDVRKVQKETLKRQPEDAPKHLPKAVAPKVTKTSSRESTLPKANTADIKDAPAQKVIANHQSTKTQTDPVKTQRLQVKIRQYEMHPDMRTGSSAPSDIRKQKNVDPVSTPETKTIKSKSMLVNDKKTTSETSQSPDQEIDVETVRRKLAEHLKKELLSQSHSSQVTLKKIRERVATNLIYPPPSAPVSSTTITPAPTPSTTPTPGSTPQHAVTSSMDQEISAAKSKSKAAEQIATPLTPQSNSSVSSTTSTIRKTLNNCSPHTYSKATARSGKLQSRFRTATFPYSTRTWEDQEFHCDNEFFLEEADELLADNP
Question: Does B2 bind [2]?
Answer: binds
